Measurements reported in publication PMC8020760, “Assembly of a dsRNA synthesizing complex: RNA-DEPENDENT RNA POLYMERASE 2 contacts the largest subunit of NUCLEAR RNA POLYMERASE IV” (Proceedings of the National Academy of Sciences of the …, 2021).

Tests used:
[1] = target: T1, recombinant NRPD1 fused at its C terminus to a FLAG epitope tag (A. thaliana, UniProt Q9LQ02 1-1453); assay: co-IP; purified recombinant proteins, 0.25 µM each, 30 min, room temperature, 50 mM Hepes-KOH pH 7.5, 150 mM NaCl; IP with resin against the tag of one or the other partner (anti-FLAG, anti-V5 or anti-HA); immunoblot; conditions: both partners purified
T1 construct: NRPD1 open reading frame, A. thaliana, codon optimized synthetic gene; full-length NRPD1 is 1,453 amino acids; More in SI Appendix, Methods; also called FLAG-tagged NRPD1; not shown: FLAG, C-terminal, kept
T1 sequence (looked up): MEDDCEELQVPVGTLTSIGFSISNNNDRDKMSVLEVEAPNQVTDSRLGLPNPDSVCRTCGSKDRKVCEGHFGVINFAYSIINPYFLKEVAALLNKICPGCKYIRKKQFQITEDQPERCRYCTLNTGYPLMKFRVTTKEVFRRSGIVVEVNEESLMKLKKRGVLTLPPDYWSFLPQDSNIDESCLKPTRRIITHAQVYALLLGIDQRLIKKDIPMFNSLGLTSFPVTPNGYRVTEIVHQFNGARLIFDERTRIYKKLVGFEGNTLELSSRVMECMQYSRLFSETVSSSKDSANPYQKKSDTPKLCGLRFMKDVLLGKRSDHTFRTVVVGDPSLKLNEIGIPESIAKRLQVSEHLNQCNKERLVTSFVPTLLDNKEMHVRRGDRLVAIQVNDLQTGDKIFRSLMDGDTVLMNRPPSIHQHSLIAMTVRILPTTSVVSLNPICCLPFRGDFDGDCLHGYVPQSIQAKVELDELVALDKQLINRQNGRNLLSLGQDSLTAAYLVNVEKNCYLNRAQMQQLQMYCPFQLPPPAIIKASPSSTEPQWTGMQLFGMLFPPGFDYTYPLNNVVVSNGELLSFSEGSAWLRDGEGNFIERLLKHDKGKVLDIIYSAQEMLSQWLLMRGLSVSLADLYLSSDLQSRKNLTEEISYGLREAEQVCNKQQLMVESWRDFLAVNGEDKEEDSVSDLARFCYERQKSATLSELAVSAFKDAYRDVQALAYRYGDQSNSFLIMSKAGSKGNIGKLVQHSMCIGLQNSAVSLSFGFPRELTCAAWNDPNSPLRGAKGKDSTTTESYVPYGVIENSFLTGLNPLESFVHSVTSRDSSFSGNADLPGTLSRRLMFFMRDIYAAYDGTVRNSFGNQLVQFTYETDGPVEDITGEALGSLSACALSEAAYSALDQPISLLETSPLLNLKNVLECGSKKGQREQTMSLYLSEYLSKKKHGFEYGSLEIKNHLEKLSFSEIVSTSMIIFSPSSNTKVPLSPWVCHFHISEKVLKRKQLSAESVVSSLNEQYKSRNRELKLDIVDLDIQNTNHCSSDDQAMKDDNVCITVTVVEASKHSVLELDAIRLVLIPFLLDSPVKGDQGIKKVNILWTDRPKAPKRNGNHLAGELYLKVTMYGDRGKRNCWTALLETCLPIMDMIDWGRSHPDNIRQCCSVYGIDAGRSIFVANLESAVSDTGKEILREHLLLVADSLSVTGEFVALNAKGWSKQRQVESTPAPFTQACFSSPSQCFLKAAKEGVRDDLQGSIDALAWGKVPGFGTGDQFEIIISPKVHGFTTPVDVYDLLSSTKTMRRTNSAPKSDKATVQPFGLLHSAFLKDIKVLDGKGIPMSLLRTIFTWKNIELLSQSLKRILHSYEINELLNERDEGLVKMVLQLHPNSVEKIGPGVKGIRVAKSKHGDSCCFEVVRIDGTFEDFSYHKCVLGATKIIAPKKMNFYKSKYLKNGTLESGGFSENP

[2] = target: T2, NRPD1-FLAG of plant Pol IV, as the band of about 165 kDa resolved by SDS-PAGE (A. thaliana, UniProt Q9LQ02 1-1453); assay: far-Western, overlay or dot blot; far-Western: affinity-purified FLAG-tagged Pol II, Pol IV and Pol V resolved by SDS-PAGE, electroblotted to nitrocellulose, incubated with recombinant V5-tagged RDR2, detected with anti-V5-HRP; conditions: both partners purified
T2 construct: NRPD1, largest catalytic subunit of Pol IV, A. thaliana; full-length NRPD1 is 1,453 amino acids; The band is assigned to NRPD1 by its size only; also called largest Pol IV subunit
T2 sequence (looked up): T1 sequence (looked up)

B1: recombinant RNA-DEPENDENT RNA POLYMERASE 2 (RDR2), wild type, with N-terminal V5 epitope and 6xHis tags (enzyme, A. thaliana, UniProt O82504 1-1133, looked up)
chain: MVSETTTNRSTVKISNVPQTIVADELLRFLELHLGEDTVFALEIPTTRDNWKPRDFARVQFTTLEVKSRAQLLSSQSKLLFKTHNLRLSEAYDDIIPRPVDPRKRLDDIVLTVGFPESDEKRFCALEKWDGVRCWILTEKRRVEFWVWESGDCYKIEVRFEDIIETLSCCVNGDASEIDAFLLKLKYGPKVFKRVTVHIATKFKSDRYRFCKEDFDFMWIRTTDFSGSKSIGTSTCFCLEVHNGSTMLDIFSGLPYYREDTLSLTYVDGKTFASAAQIVPLLNAAILGLEFPYEILFQLNALVHAQKISLFAASDMELIKILRGMSLETALVILKKLHQQSSICYDPVFFVKTQMQSVVKKMKHSPASAYKRLTEQNIMSCQRAYVTPSKIYLLGPELETANYVVKNFAEHVSDFMRVTFVEEDWSKLPANALSVNSKEGYFVKPSRTNIYNRVLSILGEGITVGPKRFEFLAFSASQLRGNSVWMFASNEKVKAEDIREWMGCFRKIRSISKCAARMGQLFSASRQTLIVRAQDVEQIPDIEVTTDGADYCFSDGIGKISLAFAKQVAQKCGLSHVPSAFQIRYGGYKGVIAVDRSSFRKLSLRDSMLKFDSNNRMLNVTRWTESMPCFLNREIICLLSTLGIEDAMFEAMQAVHLSMLGNMLEDRDAALNVLQKLSGENSKNLLVKMLLQGYAPSSEPYLSMMLRVHHESQLSELKSRCRILVPKGRILIGCMDEMGILEYGQVYVRVTLTKAELKSRDQSYFRKIDEETSVVIGKVVVTKNPCLHPGDIRVLDAIYEVHFEEKGYLDCIIFPQKGERPHPNECSGGDLDGDQFFVSWDEKIIPSEMDPPMDYAGSRPRLMDHDVTLEEIHKFFVDYMISDTLGVISTAHLVHADRDPEKARSQKCLELANLHSRAVDFAKTGAPAEMPYALKPREFPDFLERFEKPTYISESVFGKLYRAVKSSLAQRKPEAESEDTVAYDVTLEEAGFESFIETAKAHRDMYGEKLTSLMIYYGAANEEEILTGILKTKEMYLARDNRRYGDMKDRITLSVKDLHKEAMGWFEKSCEDEQQKKKLASAWYYVTYNPNHRDEKLTFLSFPWIVGDVLLDIKAENAQRQSVEEKTSGLVSI
[1]
  binding result: binds
[2]
  binding result: binds
